Source: US20040126856A1, “Factor ixa: factor Vllla interaction and methods therefor” (priority 2004, published 2004)

Columns and labels:
[1] = target: T1, A2 subunit of factor VIIIa (Homo sapiens, UniProt P00451); experiment: EC50 (functional Kd) of interaction of factor IXa proteins with A2 subunit, factor Xa generation (S-2222); assay type: biochemical; details: 5 nM factor IXa, 250 nM factor X, 25 μM PL, 5 mM CaCl2 (FIG. 1)
T1 construct: cleaved by thrombin at R372-S373, R740-S741, and R1689-S1690 to yield factor VIIIa
T1 sequence (P00451 392-759): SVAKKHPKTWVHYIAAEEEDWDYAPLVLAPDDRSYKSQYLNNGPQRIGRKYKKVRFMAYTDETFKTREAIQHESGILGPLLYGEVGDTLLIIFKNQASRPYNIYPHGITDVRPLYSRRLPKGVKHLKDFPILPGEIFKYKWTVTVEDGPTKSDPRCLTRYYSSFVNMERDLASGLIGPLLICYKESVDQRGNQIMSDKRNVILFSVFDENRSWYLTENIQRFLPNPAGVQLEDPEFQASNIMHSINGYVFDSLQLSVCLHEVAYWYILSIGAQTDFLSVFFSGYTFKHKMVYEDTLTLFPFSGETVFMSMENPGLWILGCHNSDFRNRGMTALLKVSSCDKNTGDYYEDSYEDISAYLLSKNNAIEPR
Experimental: Determination of EC50 of Interaction of Factor IXa Proteins with A2 Subunit.
The EC50 (functional Kd) of binding of each factor IXa protein with A2 subunit was measured essentially as described previously for its interaction with intact factor VIIIa (Mather and Bajaj, 1999; Mather et al., 1997). For these experiments, concentrations of factor IXa and factor X were kept constant, and the rates of formation of factor Xa were determined at increasing concentrations of A2 subunit. Reaction mixtures contained 5 nM IXa protein, 250 nM factor X, 25 μM PL and various concentrations of A2 subunit in TBS/BSA, pH 7.5 containing 5 mM CaCl2. Reactions were carried out at 37° C. for 5-20 minutes and stopped by adding 1 μL of 500 mM EDTA. The amount of factor Xa generated was determined by S-2222 hydrolysis as described previously (Mather and Bajaj, 1999; Mather et al., 1997). The EC50 was obtained by fitting the data to a single site ligand binding equation (Eq. 1) by non-linear regression analysis using the program GraFit from Erithacus Software. [formula]
Where V is the rate of formation of factor Xa at a given concentration of the A2 subunit, denoted by L, and Vmax is the rate of factor Xa formation by the factor IXa:A2 subunit complex. EC50 is the functional Kd defined as the concentration of free A2 subunit yielding 50% of the Vmax. The background rate of factor Xa generation was obtained by carrying out the reaction in the absence of the A2 subunit.

A2 558-565 peptide = target: T2, A2 558-565 peptide (Homo sapiens, UniProt P00451); experiment: Apparent Kdpeptide of binding of each factor IXa to the A2 558-565 peptide; assay type: biochemical; details: for Kd: values from FIG. 5, A2 558-565 peptide, read-out: App Kdpeptide; for ΔG°peptide: ΔG° = RTlnKd, 298 Kelvin
T2 construct: made in house; host or cells: chemical synthesis (synthetic peptide)
Experimental: Determination of the Apparent Kdpeptide of Binding of Each Factor IXa to the A2 558-565 Peptide.
The apparent Kd (termed Kdpeptide) for binding of each factor IXa to the A2 558-565 peptide was determined by its ability to inhibit the respective IXa:A2 subunit interaction as measured by reduction in the rate of factor X activation in the tenase system. The reaction mixtures for both IXaWT and IXaPCEGF1 contained 100 nM factor IXa, 30 nM A2 subunit, 250 nM factor X, and 25 μM PL in TBS/BSA, pH 7.5 with 5 mM CaCl2. The reaction mixture for IXaR333Q contained 300 nM factor IXa instead of 100 nM used for IXaWT or IXaPCEGF1; concentrations of other components were the same. The amount of factor Xa generated was determined by hydrolysis of S-2222. The IC50 values were obtained using Eq. 2. Here, y is the rate of factor Xa formation in the presence of a given concentration of the A2 558-565 peptide represented by x, and a is the maximum rate of factor Xa formation in the absence of the A2 peptide. Eq. 3 was then used to obtain the apparent Kdpeptide values. In this context, A is the concentration of IXaWT, IXaPCEGF1, or IXaR333Q, and EC50 is the apparent KdA2 for the respective IXa:A2 subunit interaction.

Row | Ability of the A2 subunit to enhance/potentiate the factor X-activating activity of the IXa protein [1] | EC50 (functional Kd), apparent Kd of interaction with the A2 subunit, single site-binding model [1] | Change in ΔG°peptide between the mutant and WT (A2 558-565 peptide) | Fold-change in apparent Kdpeptide (mutant/WT) (A2 558-565 peptide) | Kd (A2 558-565 peptide) | ΔG°peptide (A2 558-565 peptide) | EC50 ([1]; read-out: EC50 (functional Kd), apparent Kd of interaction with the A2 subunit, single site-binding model) | Substance
1 | severely impaired | could not be calculated | 1.62 kcal/mol | ~15 | 62 ± 9 µM | 5.74 kcal/mol | – | IXaR333Q: activated factor IX point mutant in which Arg333 is replaced by Gln
2 | – | – | – | – | 4 ± 1 µM | 7.36 kcal/mol | 0.257 ± 0.031 µM | IXaWT: activated recombinant wild-type factor IX (IXWT)
